Drawing on doi:10.64898/2025.12.10.692585, this text covers stoichiometry N for one substance.

The experiment has as its target Porcine RNA polymerase II, purified (porcine) (UniProt I3LGP4). Put plainly: mass photometry.

As usually defined, the stoichiometry N is a count of units in the complex or per binding partner. “Porcine RNA polymerase II, purified (from UniProt I3LGP4 127-1300; P60899 1-125; A0A4X1VYD0 1-67; A0A8D0JYF1 1-58) (complex)” came in with a stoichiometry N of 2.
